Results published in PMC7933679.

Target: Deinococcus radiodurans MazF (MazF-dr) (Deinococcus radiodurans)
Experiment: crystal structure; apo MazF-dr with N-terminal 6x His-tag, 5 mg/mL, sitting-drop vapor diffusion at 293 K; 0.2 M ammonium sulfate, 0.1 M Bis-Tris pH 5.5, 25% w/v PEG 3350; space group P4(3)2(1)2, dimer in the asymmetric unit; 1.3 Å

stoichiometry N: 2
Substance: Deinococcus radiodurans MazF (MazF-dr) (enzyme)
